Columns and labels:
[1] = target: Human FGF1 (human) (UniProt P05230); assay: cell-based or functional assay
[2] = target: Human FGF2 (human) (UniProt P09038); assay: cell-based or functional assay
Human FGF2 (human), sequence (P09038 135-288 limits assumed): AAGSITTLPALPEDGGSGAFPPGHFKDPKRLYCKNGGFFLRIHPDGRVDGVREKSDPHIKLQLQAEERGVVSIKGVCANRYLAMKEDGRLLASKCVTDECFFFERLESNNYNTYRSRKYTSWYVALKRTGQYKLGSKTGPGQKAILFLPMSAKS

Human FGF1 (human), sequence (P05230 16-155 limits assumed): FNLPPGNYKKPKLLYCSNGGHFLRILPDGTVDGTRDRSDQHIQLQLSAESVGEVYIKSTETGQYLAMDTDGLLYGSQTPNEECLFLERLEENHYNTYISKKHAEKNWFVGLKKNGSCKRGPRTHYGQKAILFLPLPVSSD

Question: Which IC50, inhibition of P-FGFR1 in NCI-H520 cells, FGF1 stimulated [1] does the source give for FP-1039 (Fc fusion) here?
Answer: The IC50, inhibition of P-FGFR1 in NCI-H520 cells, FGF1 stimulated was 0.05 µM.

Question: And the IC50, inhibition of P-FGFR1 in NCI-H520 cells, FGF2 stimulated [2]?
Answer: Its IC50, inhibition of P-FGFR1 in NCI-H520 cells, FGF2 stimulated is 0.03 µM.
